# According to PMC5231390, “Two-Component Signaling System VgrRS Directly Senses Extracytoplasmic and Intracellular Iron to Control Bacterial Adaptation under Iron Depleted Stress” (PLoS Pathogens, 2016):
# B1: PtdvA 50 bp, 5'-FAM (MST) (dsDNA)
# DNA 1: GCCCGATTTCACGTCTTTCTTCTTTTTCATTAACGGGACTTTAATTCCTG
# DNA 2: CAGGAATTAAAGTCCCGTTAATGAAAAAGAAGAAAGACGTGAAATCGGGC
# Legend:
# [1] = target: T1, VgrS (full-length, inverted membrane vesicles) (Xanthomonas campestris, UniProt Q8P666); conditions: 100 μM ATP with 10 μCi [γ-32P]ATP, 5 mM MgCl2, pH 7.8, 28°C, labelled compound
# T1 construct: gene colS
# [2] = target: T2, VgrR (Xanthomonas campestris, UniProt Q7CLQ6); experiment: phosphorylation of VgrR seen as raised VgrS affinity in MST; type: biochemical; conditions: phosphodonor; indirect read-out (VgrR-VgrS binding)
# T2 construct: gene colR; full-length, C-terminal His6, pET30a in E. coli BL21(DE3), Ni-NTA purified
# [3] = target: phosphorylated VgrR (phosphorylated by acetyl phosphate) (Xanthomonas campestris pv. campestris); experiment: MST
# [4] = target: VgrR (Xanthomonas campestris pv. campestris); experiment: MST
# [5] = target: VgrR (ColR), unphosphorylated (Xanthomonas campestris pv. campestris, UniProt B0RPP4 1-225); experiment: MST; 10 mM MgCl2; EMSA: 10 mM Tris-HCl pH 7.5, 50 mM KCl, 1 mM DTT, poly(dI-dC), room temp; MST: 50 mM Tris-HCl pH 7.4, 150 mM NaCl, 10 mM MgCl2, 0.05% Tween-20; conditions: protein: recombinant; tags: C-terminal His6 (pET30a); chain copies: 2; label: 5'-FAM on one strand
molecule,measurement,setting,value
Nc1ncnc2c1ncn2[C@@H]1O[C@H](COP(=O)(O)OP(=O)(O)OP(=O)(O)O)[C@@H](O)[C@H]1O [ATP],"in vitro autophosphorylation, SDS-PAGE autoradiography",[1],VgrS has an autokinase activity by phosphorylating itself in the presence of ATP
CC(=O)OP(=O)(O)O [acetyl phosphate],phosphorylation of VgrR seen as raised VgrS affinity in MST,[2],Phosphorylation of VgrR by acetyl phosphate significantly increased the VgrR-VgrS binding affinity
"VgrS, membrane-embedded, full-length (receptor)",Kd,[3],260 nM
same,Kd,[4],4300 nM
B1,Kd,[5],189 ± 6.22 nM
